The source of these data is paper PMC3201880 (Nucleic Acids Research, 2011).

For series [1], the target named is T1, TnpA-His6 (IS608 transposase) (Helicobacter pylori (IS608), UniProt Q933Z0 1-155).
T1 sequence: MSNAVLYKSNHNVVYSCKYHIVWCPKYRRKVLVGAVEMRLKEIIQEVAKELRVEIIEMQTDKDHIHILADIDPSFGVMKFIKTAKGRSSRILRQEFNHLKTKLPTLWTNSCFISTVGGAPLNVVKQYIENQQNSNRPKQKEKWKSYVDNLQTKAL
As to the kind of experiment: EMSA.

Series [2] has as its target T1, TnpA-His6 (IS608 transposase). Kind of series: EMSA. The source holds these as a separate data set.
The target is the same in series [3]. Kind of series: EMSA. This is another data set of the same source.
The series “cross-linking” concerns the molecule itself. Kind of series: cross-linking.

Read-outs that look alike come from different tables or passages of the source.

B1: RE70 (ssDNA)
DNA: TTCCTCATGCTTTAGCTAGAATCCCCTAGCTTTAGCTATGGGGAGTATGTCAACAAATTTGCCTAATGAC
B1: the binding result in series [1] was “binds”.

B2: RE56 (ssDNA)
DNA: CTCATGCTTTAGCTAGAATCCCCTAGCTTTAGCTATGGGGAGTATGTCAACAAATT
Take B2: the binding result in series [2] is on record as “binds”.

Turning to GCTTTAGCTAGAATCCCCTAGCTTTAGCTATGGGGAGTATGTCAA (ssDNA) [RE45_pc (precleaved)], the binding result in series [2] was “binds”.

On to GAATCCCCTAGCTTTAGCTATGGGGAGTATGTCAACAAATTTGCC (ssDNA) [RE45], for which the binding result in series [2] is on record as “binds”.

B3: LE80 (ssDNA)
DNA: CGCTAGTGCAAAAATTACCAAAACTAACGCCTTAAAGCCCCTAGCTTTTAGCTATGGGGATACAAGGCGAAACGCCTTTA
For the molecule B3, the binding result in series [1] is on record as “binds”.

For the molecule GCTTTAGCTAGAATCCCCTAGCTTTAGCTATGGGGAGTATGTCAATTCG (ssDNA) [RE49], the binding result in series [3] was “binds”.

B4: TnpA-His6 (transposase of IS608) (enzyme, Helicobacter pylori, UniProt Q933Z0 1-155, looked up)
chain: T1 sequence
On to B4, for which the “stoichiometry N” value in “cross-linking” was 2.
